Assay: yeast display, Sf9 membrane polyspecificity reagent, FACS + sequencing; frameworks hold sequencing errors
Procedure, shortened: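 Synthetic nanobody libraries on Saccharomyces cerevisiae BJ5465 were galactose-induced for 36–48 hours, stained 1 hour at 4 °C with 10% biotinylated, detergent-solubilized Sf9 membrane reagent and enriched on streptavidin microbeads. FACS then separated cells into low and high (top ~1%) gates by anti-HA (expression) and streptavidin (reagent binding) fluorescence. Genes were colony-PCR amplified, MiSeq 2 × 250 sequenced and CDR-length filtered. A clone's polyreactivity label is that of its gate of origin.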

Sequence | polyreactivity (PSR sort gate)
QVQLVESGGGIVQAGGSLRLSCAASGRILSSYAMGWYRQAPGKERELVARISYSGGRTYYADSVKGRFTISRDNAKNTVYLQMNSQKPEDTAVYYCAAVSRVHFSYIYDYWGQGTQVTVSS | high polyreactivity
QVQLVESGGGLVQAGGSLRLSCAASGLIFRYNAMGWYRQAPGKERELVAAISRSGGTTYYADSVKGRFTISRDNAKNTVYLQMNSLKPEDTAVYYCATRISQSYYNYGYWGQGTQVTVSS | high polyreactivity
QVQLVESGGGLVQAGGSLRLSCAASGSTFLTYDMGWYRQAPGKERELVAAISGGGSTNYADSVKGRFTISRDNAKNTFYLQMNSLKPVDTAVYYCAAKASGNFYYYWGQGTQVTVSS | high polyreactivity
QVQLVESGGGLVQAGGSLRLSCAASGSTFGYYAMGWYRQAPGKERELVAAISWRGGSTYYADSVKGRFTISRDNAKNTVYLQMNSLKPEDTAVYYCAAAIFITGYGSYGYWGQGTQVTVSS | low polyreactivity
QVQLVESGGGLVQAGGSLRLSCAASGSIFGYYAMGWYTQAPGKERELVASITRGGSTYYADSVKGRFTISRDNAKNTVYLQMNSLKPEDTAVYYCAAAQWWFRVRGARYYYWGQGTQVTVSS | high polyreactivity
QVQLVESGGGLVQAGGSLRIRCAASGRIFNQYAMGWYRQAPGKERELVASITQRGGRTYYADSVKGRFTISRDNAKNTVYLQMNSLKPEDTAVYYCAKQCYYVTARTGYDYWGQGTQVTVSS | high polyreactivity
QVQLVDSGGGLVQAGGSLRLSCAASGSIFWIYSMGWYRQAPGKERELVATISRGGSTYADSVKGRFTISRDNAKNTVYLQMNSLKPEDTPVYYCAARAFAGNQQAYYYWGQGTQVTVSS | high polyreactivity
QVQLGESGGGLVHEGGSLRLSCAASGFINFANTMGLYRQAPGKERELVAAITSDGSTYYADSVKGRFTISRDNAKNTVYLQMNSLKPEDTAVYYCNAQSNYADLAYWNDYWGQGTQVTVSS | low polyreactivity
QVQLVESGGGLVQAGGSLRLSCAASGRTFGYYAMGWYRQAPGKERELVAAISSGGGTYYADSVKGRFTISRDNAKNTVYLLMNSLKPEDTAVYYCAATGWVYWGQFDYWGQGTQVTVSS | low polyreactivity
QVQLVESGGGLVQAGGSLRLSCAASGITFGRYALGWYRQAPGKERELVATITVNGGRTYYADSVKGRFTISRDNAKNTVYLQMNSLKPEDTAVYYCAAERRNSYVLLFKYNYWGQGTQVTVSS | low polyreactivity
QVQLVESGGGLVQAGGSLRLSCASSGSTFRLYAMGWYRQAPGKERELVATISTSGGRTYYADSVKGRLTISRDNAKNTVYLQMNSLKPEDTAVYYCAAYRGTLLTAYDYWGQGTQVTVSS | low polyreactivity
QVQLVESGGGLVQAGGSLRLSCAPSGFIFRYYAMGWYRHAPGKERELVAAISRTSGRTYYADSVKGRFTISRDNAKNTVYLQMNSLKPEYTAVDYCAAVVRNPGTYEYWGQGTQVTVSS | high polyreactivity
QVQLVESGGGLVQAGGSLRLSCAASGSTYQGNAMGWYRQAPGKERELVAAISRSGGSTYADSVKGRFTISRDNAKNTVYLQMNSLKPEDTAVYYCAAYSGVGYLWFDYWGQGTQVTVSS | low polyreactivity
QVQLVESGGGLVQAGGSLRLSCAASGCIFYPYAMGWYRQAPGKERELVAAITYSGGSTYADSVKGRFTISRDNAKNTVYLQMNSLKPEDTAVYYCNAKFYFYGGTYIVKYDYWGQGTQVTVSS | high polyreactivity
QVQLVESGGGLVQAGGSLRLSCAASGSIFRGYTMGWYRQAPGKERELVAAISRSGGSTYYADSVKGRFTISRDNAKNTVYLQMNSLKPEDTAVYYCNVVYFVTTSPGYDYWGQGTQVTVSS | high polyreactivity
QVKLVESGGRLVQAGGSLRLSCAASGRNFYNYAMGWYRQAPGKERELVAAISKSGGRTYYADSVKGRFTISRDNAKNTVYLQMNSLKPEDTAVYYCAAEPFIPDQSRYYYWGQGSQVTVSS | high polyreactivity
QVQLVESGGGLVQAGGSHRLSCAASGFTFVTYAMGWYRQAPGKERELVATISWGGGGTYYADSVKGRFTMSRDNAKNTVYFQLNSLKPEDTAVYYCAADNCYHYNFDYWGQGTQVTVSS | low polyreactivity
QVQLVESGGGLVQAGGSLRLICAASGRTFRGNAKGCYRQAPGKERELVAAISGRGTNTYYADSVKGRFTISRDNAKNTVYLQMNSLKPEDTAVYYCAKVFYSYRDHYDYWGQGTQVTVSS | high polyreactivity
QVQLVESGGGLVQAGGSLRLICAASGSTFGIYAMGWFRQAPGKERELVAAISWRGGRTYYADSVKGSFTISRDNAKNNVYLQRNSLKPEDTAVYNCSADYRYLWEGYDYWGQGTQVTVSS | low polyreactivity
PVQLVESGGGLVQAGGSLRLSCSSSGRIFASNAMGWYRQPPGKDRELVAAIDQGGGSTYYADSVKGRFTISRDNAKITVYLQMNSLKPEDTAVYYCAADYITAYPRLYNYWGLGTQVTVSS | low polyreactivity
QVQLVESGGGLVQAGGSLRLSCDASGRNFRRNAMGWYRQAPGKERELVAAITGGGSTNYADSVKGRFTISRDNAKNTVYLQMNSLKPEDTAVYYCAARRYGVRTYRFDSWGQGTQVTVSS | high polyreactivity
QVQLVESGGGLVQAGGSLRLSCADSGFTFYTYTMGWYRPAPGKERELVAVISRSGGSTYYADSVKGRFTISRDNAKNTVYLQMNSVKPEDTAVYYCNAGYWRFIDSYDYWGQGTQVTVSS | high polyreactivity

Sequence | polyreactivity (PSR sort gate)
QVQLVESGGGLVQAGGSLRLSSAASGRIFPYYAMGWYRQAPGKETELVATISSGGRTNYADSVKGRFTISRDNAKYTVYLQMNSLKPEDTAVYYCAADYRKSRVFYGLYYWGQGTQVTVSS | high polyreactivity
QVQLVESGGGLVQAGGSLRLSCAPSGSTFTSYAMGWYRQAPGKERELVAAITYGSGTTYADSVKGRFTISRDNAKNTVYLQMNSLKPEDTAVYYCAADFYYPVLGHGFPTYEYDYWGQGTQVTVSS | low polyreactivity
QVQLVESGGGLVQAGGSLRLSCAASGYTFYRYAMGWYRQAPGKERELVATISRGGSTDYADSVKGRFTISRDNAKNTVYLQMNSLKPEDTAVYYCAARAFSRLTTFYYWGQGTQVTVSS | high polyreactivity
QVQRLESGGGLVKAGGSLRLSCSASGIILPYYVMGWYRQAPGKEREFVADITWSGGSTYYADSVKGRFTISRDNAKNTVYLQMNSLKPEDTAVYYCAAEGPWYYFFDMDYWGQGTQVTVSS | high polyreactivity
QVQLVESGGGLVQAGGSLRLSCAASGSIFSYYAMGWYRQAPGKERELVAGITWSGGRTYYADSVKGRFTISRDNAKNTVYLQMNSLKPEDTAVYYCAAVQLFSRRSRYDYWGQGTQVTVSS | high polyreactivity
QVQLVESGGGLVQAGGILRLSCAASGFIFRDYAMGWYRQAPGKERELVAAISFTDGTTYYADSVKGRFTISRDNAKNTVYLQMNSLKPEDTAVYYCAAGYTGYTYTELDYWGQGTQVTVSS | low polyreactivity
QVQLVESGGGLVQAGGSLRLSCAASGSIFHIYAIGWYRQAPGKERELVAAISWRGDSTSYADSVKGRFTISRDNAKNTVYLQMNSLKPEDTAVYYCARGYGGYRGYYAKRFGYWGQGTQVTVSS | high polyreactivity
QVQLVESGGGLVQAGGSLRLSCAASGSTFDYYDRGWFRQAPGKERELVAAISSGGDSTYYADSVKGRFTISRDNEKNTVYLQMNSLKPEDTAVYYCAAAVYYGQSVWYYYWGQGTQVTVSS | high polyreactivity
QVQLVESGGGLVQAGGSLRLSCAASGRIFHYNAMGWYRQAPGKERELVAVITTIGGDTYYADSVKGRFTISRDNAKNTVYLQMNSLKPEDTAVYYCAARSRSWRQRYGDFDYWGQGTQVTVSS | low polyreactivity
QVQLVESGGGLVQAGGSLRLSCAASGITFNGYTMGWYRQAPGKEREFVAAITRRGGSTYYADSVKGRFTISRDNAKNTVYLQMNSLKPEDTAVYYCARVTRLGGGDYDYWGQGTQVTVSS | high polyreactivity
QVQLVESGGGLVQAGGSLRLSCAASGRIIGHYAMGWYRQAPGKERDLVAAISRGGSTYYADSVKGRFTISRDNAKNTVYLQKTSLKPEDTAVYYCAVRSGRRNYDRPAFGYWGQGTQVTVSS | high polyreactivity
QVQLVESGGGLVQAGGSLRLSCAASGRTFVQYVMGWYRQAPGKERELVARISSGGSTFYADSVKGRFTISRDNAKNSVYLQLNSLKPEDTAVYYCAAQWTRYRRRPMDYWGQGTQVTVSS | high polyreactivity
QVELVESGGGLVQAGGSLRLSCAASGSTFDPNAMGWYRQAPGKERELVASITSRGGSTYYADSVKGRFTISRDIAKNTVYLQMNSLKPEDTADYYCAAVGGATYSWNGYSWYPWHNYWGQGTQVTVSS | low polyreactivity
QVQLVESGGGLVQAGGSLRLSCAASGSTFTRYAMGWYRQAPGKERELVAAISSGGSTYADSVKGRFTISRDNAKNTVYLQMNSLKPEDTAVYYCAARLYTYPKGKYWGQGTQVTVSS | high polyreactivity
QVQLVESGGGLVQAGGSLRLSCAASGSIFRAYVMGWYRQAPGKERELVAAISRGGSTNYADSVKGRFTISRDNAKNTVYLQMNSLKPEDSAVYYCAADWYFYSMYDEVEYWGQGTQVTVSS | low polyreactivity
QVQLLESGGGLVQAGGSLRLSCAASGSTFKKNAMGWYRQAPGKETELVAAISGIGTRTSYADSVKGRFTISRDNAKNTVYLQMNSLKPEDTAVYYCAARYYGFPSTLKYDYWGQGTQVTVSS | high polyreactivity
QVQLVESGGGLVQAGGSLRLSCAASGRIFVYNDMGWYRQAPGKERELVAAISSVGTTYYADSVKGRFTISRDNAKNTVYLQMNSLKPEDTAVYYCAVTRYHSPPRYYYWGQGTQVTVSS | low polyreactivity
QVQLVESGGGLVQAGGSLRLSCAASGRIFDPYAMGWYRQAPGKERELVASNSWSGGRTYYADSVKGRFTISRDNAKNTVYLQMNSLKPEDTAVYYCAKVRAYTRLGLTVSMDYWGQGTQVTVSS | high polyreactivity
QVQLVESGGGLVQAGGSLRLSCAASGRIFTSNTMAWYRQAPGKERELVAAITSSGGSMYYADSVKGRFTLSRDNAKNTVYLQIISLKPEDTAVYYFAGDTIGYHYWYDYWGQGTQVTVSS | low polyreactivity
QVQLVESGGGLVQAGGSLRLSCAASGRTFTAYAMGWYRQAPGKERELVAAITVSTSSTFYADSVKGRFTISRDNAKNTVYLQMNSLKPEDTAVYYCNKETLYPLDYWGEGTQVTVSS | low polyreactivity
QVQLVESGGGLVQAGGSLRLSCAPSGRTFKVNDMGWYRQAPGKERELVAAINYRGGRTYYADSVKGRFTISRDNAKNNFYLQMNSLKPEDTAFYYCNAQSGVVADDYWGQGTQVTVSS | high polyreactivity

Reference: the nanobody polyreactivity screen of Harvey et al. (2022)
